The values below are quoted from earlier work in publication PMC4390431.

In series [1] the target is IscU (Escherichia coli) (UniProt P0ACD4). The series can be described thus: SPR.
Series [2] shares this target. The series is described as follows: SPR. This is another data set of the same source.

Where two headings read alike, the source gives them in different places.

UniProt P0ACD4, sequence (P0ACD4 whole entry): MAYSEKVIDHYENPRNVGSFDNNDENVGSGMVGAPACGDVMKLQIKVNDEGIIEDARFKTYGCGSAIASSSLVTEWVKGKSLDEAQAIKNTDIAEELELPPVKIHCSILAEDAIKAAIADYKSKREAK

Turning to HscA (from UniProt P0A6Z1), the Kd with IscU (Escherichia coli) [1] was 0.1 µM; with IscU (Escherichia coli) [2] it was 37 µM.
